Values belong to the binder of their own block, whether it stands above or below them.
Columns and labels:
[1] = target: T1, human CAPRIN-1 protein on human cancer cells and in human cancer tissues (human, UniProt Q14444 2-709); assay: immunohistochemical staining of paraffin-embedded human cancer tissue arrays
T1 construct: whole, on cells; Endogenous protein of the cell lines and tissue arrays; also called CAPRIN-1 protein expressed on the cell membrane surfaces of human cancer cell lines
T1 sequence (looked up): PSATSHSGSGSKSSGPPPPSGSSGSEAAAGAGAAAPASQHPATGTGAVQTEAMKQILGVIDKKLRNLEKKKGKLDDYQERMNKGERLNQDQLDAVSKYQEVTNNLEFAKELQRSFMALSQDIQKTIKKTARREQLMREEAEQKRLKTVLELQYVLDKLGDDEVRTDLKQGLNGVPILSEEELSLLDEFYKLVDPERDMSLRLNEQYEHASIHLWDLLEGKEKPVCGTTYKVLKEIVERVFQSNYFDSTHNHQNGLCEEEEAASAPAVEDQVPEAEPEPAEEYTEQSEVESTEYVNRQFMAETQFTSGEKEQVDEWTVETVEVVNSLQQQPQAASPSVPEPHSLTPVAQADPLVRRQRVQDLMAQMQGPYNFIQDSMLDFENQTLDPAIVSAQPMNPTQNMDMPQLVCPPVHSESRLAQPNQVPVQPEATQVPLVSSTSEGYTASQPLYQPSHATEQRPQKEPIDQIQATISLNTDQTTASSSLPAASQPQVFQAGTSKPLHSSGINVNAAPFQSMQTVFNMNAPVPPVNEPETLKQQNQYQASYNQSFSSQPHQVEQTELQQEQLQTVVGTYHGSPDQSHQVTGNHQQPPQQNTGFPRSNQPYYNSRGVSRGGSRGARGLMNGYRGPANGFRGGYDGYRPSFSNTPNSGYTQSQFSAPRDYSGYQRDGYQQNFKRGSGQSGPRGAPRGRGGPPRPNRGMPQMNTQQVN
Method: After 3 hours of treatment of the human breast cancer tissue array at 60° C., the array was placed in a staining bottle filled with xylene, followed by xylene replacement being repeated three times every 5 minutes. Next, a similar procedure was performed with ethanol and PBS-T instead of xylene. The human breast cancer tissue array was placed in a staining bottle filled with 10 mM citrate buffer (pH 6.0) containing 0.05% Tween20. After 5 minutes of treatment at 125° C., the array was left to stand at room temperature for 40 minutes or more. Excess water around the sections was removed with Kimwipes, the sections were circled with a DAKOPEN, and Peroxidase Block (DAKO) was added dropwise in appropriate amounts. After left to stand at room temperature for 5 minutes, the array was placed in a staining bottle filled with PBS-T, followed by PBS-T replacement being repeated three times every 5 minutes. As a blocking solution, a PBS-T solution containing 10% FBS was placed on the array, and then the array was left to stand in a moist chamber at room temperature for 1 hour. Next, a solution of the monoclonal antibody #1 of 10 μg/ml adjusted with a PBS-T solution containing 5% FBS, which reacts with cancer cell surfaces and had been prepared in Example 4, was placed on, and the array was left to stand overnight in a moist chamber at 4° C. […]

[2] = target: T2, recombinant human CAPRIN-1 protein having the amino acid sequence represented by SEQ ID NO: 2 (human, UniProt Q14444 2-709); assay: ELISA; CAPRIN-1 protein coated at 1 ug/ml, hybridoma culture supernatant, HRP anti-chicken IgY
T2 construct: The His-tag was cleaved off with enterokinase; also called antigen protein (human CAPRIN-1)
T2 sequence: T1 sequence (looked up)
Method: The thus selected hybridomas were added to a 96-well plate at 0.5 cells per well and then cultured. After 1 week, hybridomas that had formed single colonies in wells were observed. These cells in the wells were further cultured, and then hybridomas were selected using as a marker the binding affinity of antibodies produced by the cloned hybridomas to the CAPRIN-1 protein. The CAPRIN-1 protein solution (1 μg/ml) prepared in Example 2 was added to a 96-well plate at 100 μl per well, and then left to stand at 4° C. for 18 hours. Each well was washed with PBS-T three times, 400 μl of a 0.5% BSA solution was added per well, and then the resultant was left to stand at room temperature for 3 hours. The solution was removed, and then the wells were washed three times with 400 μl of PBS-T per well. 100 μl of each culture supernatant of the above-obtained hybridomas was added per well, and then the plate was left to stand at room temperature for 2 hours. After washing each well three times with PBS-T, 100 μl of an HRP-labeled anti-chicken IgY antibody (SIGMA) diluted 5000-fold with PBS was added per well and then left to stand at room temperature for 1 hour. […] After color development, 100 μl of 1N sulfuric acid was added per well to stop the reaction and then absorbances at 450 nm and 595 nm were measured using an absorption spectrometer. […]

[3] = target: T1, human CAPRIN-1 protein on human cancer …; assay: flow cytometry on MDA-MB-231V human breast cancer cells, hybridoma culture supernatant, FITC anti-chicken IgG
Method: Next, of those monoclonal antibodies, antibodies reactive with the cell surfaces of breast cancer cells expressing CAPRIN-1 were selected. Specifically, 5×10⁵ cells of the human breast cancer cell line MDA-MB-231V were subjected to centrifugation in a 1.5-ml microcentrifuge tube, and 100 μl of the culture supernatant of each of the above hybridomas was added to the tube, and then the tube was left to stand on ice for 1 hour. After washing with PBS, an FITC-labeled goat anti-chicken IgG (H+L) antibody (SouthernBiotech) diluted 30-fold with PBS containing 0.1% FBS was added, and then the resultant was left to stand on ice for 1 hour. After washing with PBS, fluorescence intensity was measured using a FACS caliber (Becton, Dickinson and Company). Meanwhile, procedures similar to the above were performed for medium for culturing hybridomas, so that a control sample was obtained.

binding result [1]: binds
B1: monoclonal antibody #1 prepared in Example 4 (antibody, V domains shown)
VH: AVTLDESGGGLQTPGGGLSLVCKASGFTFSSFDMGWVRQAPGKGLEFVAQINDAGSRTWYATAVKGRATISRDNGQTTVRLQLNNLRAEDTGTYYCTRGSGYVGAGAIDAWGHGTEVIVS
VL: AALTQPSSVSANPGETVKITCSGGSGYYGWYQQQKSPGSAPVTVIYQNDKRPSDIPSRFSGSGSGSTNTLTITGVQAEDEAVYFCGRYDSTDSGIFGAGTTLTVL
notes: also called anti-CAPRIN-1 monoclonal antibody

binding result [2]: binds
binding result [3]: binds
B2: chicken monoclonal antibody #1 (antibody, V domains shown)
VH: B1 VH
VL: B1 VL
notes: Chicken hybridoma antibody tested as culture supernatant and detected with anti-chicken IgY/IgG secondary antibodies; the chicken constant regions are not; also called anti-CAPRIN-1 monoclonal antibody #1
